Data as given in patent publication US20140322233A1 (Takeda / Millennium, published 2014).

T1: mouse GCC (mouse, UniProt Q3UWA6 20-433, limits assumed)
T1 construct: Construct used for the cross-reactivity test is not described
T1 sequence (looked up): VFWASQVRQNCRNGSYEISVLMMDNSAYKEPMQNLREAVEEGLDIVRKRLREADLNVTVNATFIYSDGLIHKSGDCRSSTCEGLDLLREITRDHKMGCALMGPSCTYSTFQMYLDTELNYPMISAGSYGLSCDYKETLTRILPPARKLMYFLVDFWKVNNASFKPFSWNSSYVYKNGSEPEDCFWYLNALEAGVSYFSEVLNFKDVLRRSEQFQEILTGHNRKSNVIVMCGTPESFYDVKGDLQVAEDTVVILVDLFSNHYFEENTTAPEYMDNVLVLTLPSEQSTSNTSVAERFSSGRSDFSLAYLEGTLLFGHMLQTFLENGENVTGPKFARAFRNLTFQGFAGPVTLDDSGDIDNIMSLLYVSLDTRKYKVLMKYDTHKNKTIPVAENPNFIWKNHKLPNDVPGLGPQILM

T2: rat GCC (rat, UniProt P23897 23-429, limits assumed)
T2 construct: Construct used for the cross-reactivity test is not described
T2 sequence (looked up): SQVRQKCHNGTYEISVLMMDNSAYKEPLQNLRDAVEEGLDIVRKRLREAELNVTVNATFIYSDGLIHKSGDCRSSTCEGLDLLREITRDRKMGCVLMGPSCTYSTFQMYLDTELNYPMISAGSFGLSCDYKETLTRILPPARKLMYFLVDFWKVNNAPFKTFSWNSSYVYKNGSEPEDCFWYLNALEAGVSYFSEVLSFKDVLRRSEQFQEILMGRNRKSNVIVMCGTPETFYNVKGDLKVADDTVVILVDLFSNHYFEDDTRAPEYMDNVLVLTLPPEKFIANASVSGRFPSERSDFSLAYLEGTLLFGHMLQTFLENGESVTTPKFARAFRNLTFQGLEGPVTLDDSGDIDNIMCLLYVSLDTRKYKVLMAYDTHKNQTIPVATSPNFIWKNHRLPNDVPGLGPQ


What was measured:
mouse GCC = target: T1, mouse GCC; test: not described (FIG. 4: ELISA on GCC orthologs)
rat GCC = target: T2, rat GCC; test: not described (FIG. 4: ELISA on GCC orthologs)
[1] = target: T3, human GCC, full length with myc tag (293-GCC#2 cells) (human, UniProt P25092 24-1073); test: indirect immunofluorescence flow cytometry, 293 GCC #2 cells;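 further: cells exposed to the test antibodies for 1 h on ice before flow cytometric readout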
T3 construct: not shown: myc tag
T3 sequence (P25092 24-1073): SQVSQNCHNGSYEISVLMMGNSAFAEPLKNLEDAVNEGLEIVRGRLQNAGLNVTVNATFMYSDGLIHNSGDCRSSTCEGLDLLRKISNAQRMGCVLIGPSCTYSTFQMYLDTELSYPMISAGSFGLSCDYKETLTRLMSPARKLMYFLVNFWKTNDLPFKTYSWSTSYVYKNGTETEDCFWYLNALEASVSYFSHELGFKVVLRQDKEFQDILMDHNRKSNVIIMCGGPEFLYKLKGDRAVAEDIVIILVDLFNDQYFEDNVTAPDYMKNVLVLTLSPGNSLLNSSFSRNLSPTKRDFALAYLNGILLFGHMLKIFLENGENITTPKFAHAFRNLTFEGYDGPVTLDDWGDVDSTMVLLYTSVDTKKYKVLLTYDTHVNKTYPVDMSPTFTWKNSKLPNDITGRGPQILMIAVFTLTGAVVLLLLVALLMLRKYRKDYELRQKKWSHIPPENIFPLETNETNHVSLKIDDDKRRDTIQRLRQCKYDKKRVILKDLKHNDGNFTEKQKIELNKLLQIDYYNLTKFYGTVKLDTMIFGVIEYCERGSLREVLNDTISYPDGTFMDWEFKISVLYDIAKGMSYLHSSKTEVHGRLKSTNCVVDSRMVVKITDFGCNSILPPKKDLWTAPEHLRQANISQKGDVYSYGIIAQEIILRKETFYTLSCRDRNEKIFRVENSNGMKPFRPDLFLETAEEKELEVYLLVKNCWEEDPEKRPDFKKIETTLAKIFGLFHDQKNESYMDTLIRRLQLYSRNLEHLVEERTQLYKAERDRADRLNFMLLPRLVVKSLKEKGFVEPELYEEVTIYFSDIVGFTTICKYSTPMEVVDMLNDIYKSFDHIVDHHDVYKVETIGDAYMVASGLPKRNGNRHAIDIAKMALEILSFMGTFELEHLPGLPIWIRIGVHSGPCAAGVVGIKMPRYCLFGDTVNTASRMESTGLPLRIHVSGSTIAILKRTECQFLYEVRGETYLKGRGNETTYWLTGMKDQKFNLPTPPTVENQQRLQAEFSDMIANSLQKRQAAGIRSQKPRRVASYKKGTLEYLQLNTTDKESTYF

[2] = target: T3, human GCC, full length with myc tag …; test: cell-based or functional assay
TOK107-hIg = target: T4, TOK107-hIg (human); test: ELISA against TOK107-hIg
T4 construct: Expressed in HEK293 cells; Fc mutated at the CH1 cysteine and at lysine 235 and glycine 237 to alanine; also called hGCC-ECD/hIgG1 Fc; TOK107-hIgG
T4 sequence (chain, as listed by the source limits assumed): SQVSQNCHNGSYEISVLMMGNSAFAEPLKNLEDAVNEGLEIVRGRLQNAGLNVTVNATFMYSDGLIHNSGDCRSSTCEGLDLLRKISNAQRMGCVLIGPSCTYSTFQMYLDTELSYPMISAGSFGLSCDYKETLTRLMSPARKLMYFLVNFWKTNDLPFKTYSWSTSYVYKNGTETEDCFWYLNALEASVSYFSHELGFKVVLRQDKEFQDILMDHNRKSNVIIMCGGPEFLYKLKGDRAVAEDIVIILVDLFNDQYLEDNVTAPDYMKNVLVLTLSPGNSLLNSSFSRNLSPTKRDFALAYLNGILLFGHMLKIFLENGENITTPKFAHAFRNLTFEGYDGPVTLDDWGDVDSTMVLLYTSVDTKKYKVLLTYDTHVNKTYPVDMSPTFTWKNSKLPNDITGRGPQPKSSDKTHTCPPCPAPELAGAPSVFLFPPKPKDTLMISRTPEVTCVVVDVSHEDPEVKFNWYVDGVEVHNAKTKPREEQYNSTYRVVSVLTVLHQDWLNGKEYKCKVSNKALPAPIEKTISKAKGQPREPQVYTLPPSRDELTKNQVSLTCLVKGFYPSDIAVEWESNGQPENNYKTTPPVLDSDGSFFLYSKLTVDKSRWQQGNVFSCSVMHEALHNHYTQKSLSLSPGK

[3] = target: T5, human guanylyl cyclase C (GCC), full length (human, UniProt P25092 24-1073); test: FACS with GCC-expressing cells (cell line not given); FACS EC50 on GCC-expressing cells
T5 construct: Full length GCC on transfected HT-29 (clones #2, #5, #18) and CT26 (#2.5, #32) cells and endogenous GCC on T84 cells; also called hGCC; STAR
T5 sequence (P25092 24-1073 limits assumed): as the sequence (P25092 24-1073) above

[4] = target: T5, human guanylyl cyclase C (GCC), full …; test: FACS with GCC-expressing cells (cell line not given)

Binder	binding result (mouse GCC)	binding result (rat GCC)	MFI at 0.001 µg/ml [1]	MFI at 0.004 µg/ml [1]	MFI at 0.016 µg/ml [1]	MFI at 0.063 µg/ml [1]	MFI at 0.25 µg/ml [1]	MFI at 1 µg/ml [1]	LD50, indirect cytotoxicity with DM1-conjugated mouse anti-human IgG, 293-GCC#2 cells, WST after 4 days [2]	EC50 (TOK107-hIg)	EC50 [3]	EC50 [4]
mAb 5F9 (antibody, V domains shown, Human; hybridoma product is IgG2, kappa; also called 46.5F9.8.2; Prep A 5F9) VH: QVQLQQWGAGLLKPSETLSLTCAVFGGSFSGYYWSWIRQPPGKGLEWIGEINHRGNTNDNPSLKSRVTISVDTSKNQFALKLSSVTAADTAVYYCARERGYTYGNFDHWGQGTLVTVSS VL: EIVMTQSPATLSVSPGERATLSCRASQSVSRNLAWYQQKPGQAPRLLIYGASTRATGIPARFSGSGSGTEFTLTIGSLQSEDFAVYYCQQYKTWPRTFGQGTNVEIK	no binding	no binding	500	937	2460	6620	7820	8030	26 pM	–	–	–
mAb 3G1 (antibody, IgG1, V domains shown) VH: QVQLKESGPGLVAPSQSLSITCTVSGFSLSRNAISWVRQPPGKGLEWLGVIWTGGGTNYNSALKSRLSIRKENSKSQVFLKMNSLQTEDTARYFCARSGYDGFDYWGQGTLVTVSA VL: QIVLTQSPAIMSASPGEKVTMTCSASSSVNYMHWYQQKSGTSPKRWIYDTSKLASGVPARFSGSGSGTSYSLTITSMEAEDAATYYCQQWSGNPYTFGGGTKLEIK	–	–	–	–	–	–	–	–	–	22.8 nM	0.58 nM	–
mAb Abx-338 (antibody, IgG1, V domains shown) VH: QVQLQESGPGLVKPSETLSLTCTVSGGSIRSYYWSWIRQPAGKGLEWIGRIYISGRTTFNPSLKSRVTISVDTSKNQFSLKLSSVTAADTAVYFCARDRYYGYLDYWGQGTLVTVSS VL: not shown	–	–	–	–	–	–	–	–	267 pM	0.0049 nM	–	90 nM
